The text below walks through data of doi:10.1101/2022.05.30.493956 (bioRxiv, 2022).

Data set [1] concerns the molecule itself. Nature of the data set: far-UV circular dichroism.
Data set [2] deals with the molecule itself. Nature of the data set: scanning electron microscopy of in vitro assembled purified protein.

B1: Full length human lamin A W514R (natural protein, UniProt P02545 1-664, looked up)
chain: METPSQRRATRSGAQASSTPLSPTRITRLQEKEDLQELNDRLAVYIDRVRSLETENAGLRLRITESEEVVSREVSGIKAAYEAELGDARKTLDSVAKERARLQLELSKVREEFKELKARNTKKEGDLIAAQARLKDLEALLNSKEAALSTALSEKRTLEGELHDLRGQVAKLEAALGEAKKQLQDEMLRRVDAENRLQTMKEELDFQKNIYSEELRETKRRHETRLVEIDNGKQREFESRLADALQELRAQHEDQVEQYKKELEKTYSAKLDNARQSAERNSNLVGAAHEELQQSRIRIDSLSAQLSQLQKQLAAKEAKLRDLEDSLARERDTSRRLLAEKEREMAEMRARMQQQLDEYQELLDIKLALDMEIHAYRKLLEGEEERLRLSPSPTSQRSRGRASSHSSQTQGGGSVTKKRKLESTESRSSFSQHARTSGRVAVEEVDEEGKFVRLRNKSNEDQSMGNWQIKRQNGDDPLLTYRFPPKFTLKAGQVVTIWAAGAGATHSPPTDLVRKAQNTWGCGNSLRTALINSTGEEVAMRKLVRSVTVVEDDEDEDGDDLLHHHHGSHCSSSGDPAEYNLRSRTVLCGTCGQPADKASASGSGAQVGGPISSGSSASSVTVTRSYRSVGGSGGGSFGDNLVTRSYLLGNSSPRTQSPQNCSIM
Take B1: in data set [1], the binding result was “binds”.

B2: Full length human lamin A protein/pre-lamin A (664 amino acids), wild type (natural protein, UniProt P02545 1-664, looked up)
chain: METPSQRRATRSGAQASSTPLSPTRITRLQEKEDLQELNDRLAVYIDRVRSLETENAGLRLRITESEEVVSREVSGIKAAYEAELGDARKTLDSVAKERARLQLELSKVREEFKELKARNTKKEGDLIAAQARLKDLEALLNSKEAALSTALSEKRTLEGELHDLRGQVAKLEAALGEAKKQLQDEMLRRVDAENRLQTMKEELDFQKNIYSEELRETKRRHETRLVEIDNGKQREFESRLADALQELRAQHEDQVEQYKKELEKTYSAKLDNARQSAERNSNLVGAAHEELQQSRIRIDSLSAQLSQLQKQLAAKEAKLRDLEDSLARERDTSRRLLAEKEREMAEMRARMQQQLDEYQELLDIKLALDMEIHAYRKLLEGEEERLRLSPSPTSQRSRGRASSHSSQTQGGGSVTKKRKLESTESRSSFSQHARTSGRVAVEEVDEEGKFVRLRNKSNEDQSMGNWQIKRQNGDDPLLTYRFPPKFTLKAGQVVTIWAAGAGATHSPPTDLVWKAQNTWGCGNSLRTALINSTGEEVAMRKLVRSVTVVEDDEDEDGDDLLHHHHGSHCSSSGDPAEYNLRSRTVLCGTCGQPADKASASGSGAQVGGPISSGSSASSVTVTRSYRSVGGSGGGSFGDNLVTRSYLLGNSSPRTQSPQNCSIM
On to B2, for which the binding result in data set [2] is listed as “binds”.
